Our source for the IC50 and Ki values is US20080119432, “Inhibition Of Metallo-Beta-Lactamase By Rna” (published 2008).

Data set [1] addresses T1, metallo-beta-lactamase (beta-lactamase II, 5/B/6) (Bacillus cereus 5/B/6, UniProt P14488 SEQ:2-228).
T1 sequence: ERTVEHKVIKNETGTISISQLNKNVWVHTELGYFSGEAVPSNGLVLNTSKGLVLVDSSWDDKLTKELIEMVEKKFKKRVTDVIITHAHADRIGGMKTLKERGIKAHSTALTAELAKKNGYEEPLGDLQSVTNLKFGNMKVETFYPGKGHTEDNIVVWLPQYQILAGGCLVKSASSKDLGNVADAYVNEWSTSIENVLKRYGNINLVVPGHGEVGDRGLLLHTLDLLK
The data set can be described thus: inhibition; 4.3 mM cephalosporin C, 50 mM MOPS pH 7.0, no added Zn. The conditions noted are these: tags: expressed in E. coli TAP56 from pRE2/bla.

The target of data set [2] is T1, metallo-beta-lactamase (beta-lactamase …). Description: inhibition; noncompetitive; Ki' (enzyme-substrate-inhibitor complex) 15 nM; cephalosporin C substrate, 50 mM MOPS pH 7.0, 30 C. Particulars: tags: expressed in E. coli TAP56 from pRE2/bla.

One may read the IC50 as the concentration at which inhibition is half-maximal. One may read the Ki as the dissociation constant of the complex between target and ligand, obtained from inhibition or displacement. A low value points to higher affinity. For the molecule UGGCUGCAGGGUCUGGCCCCCCGUUUGGUG (ssRNA) [30-mer RNA], in data set [1], the IC50 is 11 nM. Also, in data set [2], the Ki was 2 nM.
